Changes are numbered by the printed parent chain.
Columns and labels:
[1] = molecular target: T1, HEN1-R^1LR^2 (His-tagged, residues 1–519) (Arabidopsis thaliana, UniProt Q9C5Q8 1-519); assay: pull-down
T1 sequence (looked up): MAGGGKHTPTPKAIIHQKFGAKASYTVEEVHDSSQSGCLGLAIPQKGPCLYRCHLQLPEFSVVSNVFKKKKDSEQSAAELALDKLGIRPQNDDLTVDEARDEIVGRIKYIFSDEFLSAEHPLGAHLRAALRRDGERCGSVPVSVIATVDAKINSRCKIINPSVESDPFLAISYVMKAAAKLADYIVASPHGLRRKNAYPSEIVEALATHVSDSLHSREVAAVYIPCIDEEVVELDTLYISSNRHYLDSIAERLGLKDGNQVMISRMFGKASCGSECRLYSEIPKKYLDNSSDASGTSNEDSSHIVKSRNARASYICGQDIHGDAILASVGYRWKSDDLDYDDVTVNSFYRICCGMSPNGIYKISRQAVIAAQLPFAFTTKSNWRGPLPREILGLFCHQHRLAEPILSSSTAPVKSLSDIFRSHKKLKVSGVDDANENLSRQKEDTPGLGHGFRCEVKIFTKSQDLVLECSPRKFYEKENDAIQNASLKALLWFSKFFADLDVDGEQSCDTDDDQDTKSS

HEN1 wt;HYL1 = molecular target: T2, HEN1 wt;HYL1 (Arabidopsis thaliana;Arabidopsis …, UniProt Q9C5Q8;O04492 1-942;1-419, |); assay: EMSA
T2 sequence 1: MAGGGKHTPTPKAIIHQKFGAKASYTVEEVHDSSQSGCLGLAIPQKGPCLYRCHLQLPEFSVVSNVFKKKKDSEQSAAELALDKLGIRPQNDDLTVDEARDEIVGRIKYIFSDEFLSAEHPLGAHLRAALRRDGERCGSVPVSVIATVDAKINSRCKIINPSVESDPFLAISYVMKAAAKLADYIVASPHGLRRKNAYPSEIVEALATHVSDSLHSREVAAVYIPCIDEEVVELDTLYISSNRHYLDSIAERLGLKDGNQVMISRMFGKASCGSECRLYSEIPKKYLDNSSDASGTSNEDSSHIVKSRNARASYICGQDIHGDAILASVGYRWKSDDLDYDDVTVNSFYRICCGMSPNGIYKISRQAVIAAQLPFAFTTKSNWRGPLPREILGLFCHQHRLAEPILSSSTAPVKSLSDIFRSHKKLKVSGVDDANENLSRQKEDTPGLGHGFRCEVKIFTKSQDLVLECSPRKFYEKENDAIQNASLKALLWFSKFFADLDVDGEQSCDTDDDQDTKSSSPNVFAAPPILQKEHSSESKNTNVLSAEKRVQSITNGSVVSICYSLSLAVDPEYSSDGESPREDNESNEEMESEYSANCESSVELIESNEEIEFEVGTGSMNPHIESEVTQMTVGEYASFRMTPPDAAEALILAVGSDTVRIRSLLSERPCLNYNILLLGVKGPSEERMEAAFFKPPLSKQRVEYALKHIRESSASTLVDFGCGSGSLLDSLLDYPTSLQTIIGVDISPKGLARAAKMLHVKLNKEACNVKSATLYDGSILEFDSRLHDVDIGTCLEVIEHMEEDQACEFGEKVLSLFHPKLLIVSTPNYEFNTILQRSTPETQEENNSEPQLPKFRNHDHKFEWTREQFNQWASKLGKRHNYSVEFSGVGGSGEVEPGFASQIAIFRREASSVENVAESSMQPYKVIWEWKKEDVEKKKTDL
T2 sequence 2: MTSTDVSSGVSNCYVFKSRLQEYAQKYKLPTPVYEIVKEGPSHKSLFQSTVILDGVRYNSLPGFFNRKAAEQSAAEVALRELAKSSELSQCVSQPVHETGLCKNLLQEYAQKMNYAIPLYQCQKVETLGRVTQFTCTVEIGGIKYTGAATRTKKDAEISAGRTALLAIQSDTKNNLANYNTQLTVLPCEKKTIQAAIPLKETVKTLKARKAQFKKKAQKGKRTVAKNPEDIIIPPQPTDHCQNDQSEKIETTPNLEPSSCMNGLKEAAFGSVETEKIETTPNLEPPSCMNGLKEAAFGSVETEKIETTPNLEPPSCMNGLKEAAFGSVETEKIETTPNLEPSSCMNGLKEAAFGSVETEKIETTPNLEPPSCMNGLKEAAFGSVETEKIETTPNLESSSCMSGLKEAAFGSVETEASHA

HEN1-RHK389,397,477AAA [2] = molecular target: T3, HEN1-RHK389,397,477AAA (Arabidopsis thaliana, UniProt Q9C5Q8 1-942, R389A;H397A;K477A); assay: EMSA
T3 sequence: T2 sequence 1 with R389A, H397A, K477A

HYL1 = molecular target: T4, HYL1 (Arabidopsis thaliana, UniProt O04492 1-419); assay: EMSA
T4 sequence: T2 sequence 2

HEN1-RHK389,397,477AAA [3] = molecular target: T3, HEN1-RHK389,397,477AAA; assay: EMSA; remark: listed apart in the source
HEN1 Δ38-45 = molecular target: T5, HEN1 Δ38-45 (Arabidopsis thaliana, UniProt Q9C5Q8 1-37+=G+46-942, internal_change); assay: EMSA
T5 sequence: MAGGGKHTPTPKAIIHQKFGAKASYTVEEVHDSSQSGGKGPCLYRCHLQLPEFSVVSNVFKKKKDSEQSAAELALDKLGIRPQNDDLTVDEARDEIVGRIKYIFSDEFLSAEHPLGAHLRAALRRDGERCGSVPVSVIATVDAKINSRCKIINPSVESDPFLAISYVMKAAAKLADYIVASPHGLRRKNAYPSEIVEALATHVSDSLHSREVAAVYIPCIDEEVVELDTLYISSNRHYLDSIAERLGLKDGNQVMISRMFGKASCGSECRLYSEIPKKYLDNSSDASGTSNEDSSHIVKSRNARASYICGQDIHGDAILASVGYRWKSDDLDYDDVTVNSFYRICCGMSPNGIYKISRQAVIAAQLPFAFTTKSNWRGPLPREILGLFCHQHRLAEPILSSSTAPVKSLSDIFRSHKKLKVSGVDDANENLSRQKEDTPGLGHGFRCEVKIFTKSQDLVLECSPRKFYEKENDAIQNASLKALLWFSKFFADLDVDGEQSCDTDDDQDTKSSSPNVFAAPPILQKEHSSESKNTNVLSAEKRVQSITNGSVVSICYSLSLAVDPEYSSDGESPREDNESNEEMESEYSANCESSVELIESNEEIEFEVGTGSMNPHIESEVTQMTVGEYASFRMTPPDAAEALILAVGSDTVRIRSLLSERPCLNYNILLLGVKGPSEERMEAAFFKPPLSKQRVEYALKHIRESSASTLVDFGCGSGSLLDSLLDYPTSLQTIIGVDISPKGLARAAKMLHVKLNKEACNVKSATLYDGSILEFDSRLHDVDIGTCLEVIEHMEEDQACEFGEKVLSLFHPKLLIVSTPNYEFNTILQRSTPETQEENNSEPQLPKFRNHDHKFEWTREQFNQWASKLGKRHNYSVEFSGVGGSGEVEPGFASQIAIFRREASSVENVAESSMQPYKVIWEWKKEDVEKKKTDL

HEN1 wt = molecular target: T6, HEN1 wt (Arabidopsis thaliana, UniProt Q9C5Q8 1-942); assay: EMSA
T6 sequence: T2 sequence 1

B1: GST-HYL1 (GST-fused full-length HYL1) (natural protein, UniProt O04492 1-419, looked up)
chain: T2 sequence 2
binding result [1]: binds

B2: siR173/siR173* (dsRNA)
RNA 1: UUAACGCUUGCAGAGAGAAUCAC
RNA 2: GAUUCUCUCUGCAAGCGUUAAAG
binding result (HEN1 wt;HYL1): binds | Kd (HEN1-RHK389,397,477AAA [2]): 293 ± 27 nM | binding result (HYL1): binds

B3: miR173CH3/miR173*CH3 (dsRNA)
RNA 1: UUCGCUUGCAGAGAGAAAUCAC
RNA 2: GAUUCUCUGUGUAAGCGAAAG
modifications: 2'-O-methyl on 3'-terminal nucleotide of both strands
binding result (HEN1-RHK389,397,477AAA [3]): no binding | Kd (HEN1 Δ38-45): 2.1 ± 0.1 nM | Kd (HEN1 wt): 7.2 ± 0.1 nM
